Measured values as given in US20160327558A1.
Primed or numbered codes have the meaning given here. The star is where a group is joined. AOMK(3) = acyloxymethyl ketone at C-terminal Arg; Biotin = O=C1N[C@H]2[C@H](CS[C@H]2CCCCC(=O)*)N1

Key:
[1] = target: active endogenous MALT1 (stimulated Jurkat T cells, stimulated primary human PBMCs and T cells, ABC DLBCL cells) (human) (UniProt Q9UDY8); test: ELISA-type assay on streptavidin-coated plates, 2×10^6 Jurkat T cells
[2] = target: active endogenous MALT1 (stimulated Jurkat T cells, stimulated primary human PBMCs and T cells, ABC DLBCL cells) (human) (UniProt Q9UDY8); test: probe 7 pulldown with streptavidin beads; supernatant tested with probe 6

probe concentration sufficient to obtain a robust increase in active MALT1 [1]: < 10 nM | probe concentration sufficient to completely remove active MALT1 from the extracts [2]: 100 nM
Binder: Ac-K(Biotin)LRSR-{AOMK(3)} [probe 7 (biotin-coupled; Ac-Lys(biotin)-LRSR-AOMK)]
